B1: POU domain, class 2, transcription factor 1, residues 285 to 354; numbered along this chain, P14859 (parent)
chain: LEELEQFAKTFKQRRIKLGFTQGDVGLAMGKLYGNDFSQTTISRFEALNLSFKNMCKLKPLLEKWLNDAE

Variants of: B1
Test: abundance fitness (aPCA) (normalised: wild type 0, dead -1); higher = more abundant; growth selection in yeast, the domain comes from the species named
Settings: Homo sapiens

Abundance fitness, by site and new letter:
S38: Y -0.271, N -0.032, P -0.041, E -0.03, Q -0.03, R -0.061, G 0.023, T 0.012, F -0.199, K -0.011
N54: D 0.08, V 0.006, T -0.008, H 0.004, P -0.135, G -0.018, L -0.005, I 0.054, M -0.005, A 0.019, S 0.009, Y -0.01, C 0.011, K 0.009
S51: A -0.055, T -0.035, H -0.076, R -0.056, N -0.099, P 0.002, Q -0.09, K -0.023, C -0.086, W -0.982, F -0.807, M -0.472, E 0.003, Y -0.496, I -0.801, G 0.028, L -0.579
T41: W -0.088, R -0.098, M -0.029, P -0.209, N -0.029, K 0.022, S 0.005, D -0.018, C -0.08, E -0.163, F -0.1, A -0.02, L -0.023, V -0.029, Q -0.028, H -0.052, I -0.067
Q39: W -0.005, G 0.005, T 0.008, I -0.057, E 0.013, N -0.055, F -0.14, S 0.015, P -0.011, V -0.033, L -0.026, H 0.028, M -0.056, K 0.014, R 0.005, C -0.037, D 0.008, A 0.015
L58: P -0.802, M 0.014, K -0.202, V 0.005, C -0.019, N -0.396, S -0.178, Q -0.199, E -0.526, H -0.046, G -0.632, I -0.027, T -0.07, F -0.026, W 0.002, A -0.062, D -0.474
S43: C -0.033, L -0.067, R 0.018, Y -0.053, E -0.013, W -0.086, D -0.161, A 0.035, P -0.03, F -0.088, G -0.156, H -0.077, I -0.064, M -0.013, N 0.005, Q 0.029, K 0.121, T -0.007
R44: A 0.013, C -0.053, Q 0.042, K -0.048, L -0.026, Y -0.155, W -0.253, D -0.058, P -1.02, S 0.015, E -0.059, N -0.165, H -0.027, I -0.794, M -0.032, T -0.089
E46: N -0.783, Q -0.851, G -0.929, F -1, C -0.801, I -0.84, H -0.856, V -0.852, T -0.934, K -0.658, Y -1.02, W -0.698, L -1.01, D -0.754
T40: S -0.007, G -0.028, N 0.004, D -0.15, P -0.032, H -0.035, L -0.001, F 0.067, M -0.059, R 0.014, K -0.071, C 0.019, I -0.142, Q 0.016, E -0.354, Y 0.077, W -0.054
F45: R -1.01, A -0.62, W -0.247, Y -0.133, L -0.115, I -0.382, Q -1.02, M -0.137, V -0.429
